Source: publication PMC2944802, “CpG-Methylation Regulates a Class of Epstein-Barr Virus Promoters”

B1: BMLF1 ZRE AP-1 (dsDNA)
DNA 1: GCGAAGCACTGACTCATGAAGGTGA
DNA 2: TCACCTTCATGAGTCAGTGCTTCGC
B2: BRLF1 meZRE3 (dsDNA)
DNA 1: CAGTCAAAATTCGCGATGCTATAAA
DNA 2: TTTATAGCATCGCGAATTTTGACTG
modifications: 5mC at positions 12 and 14 of strand 1; bottom-strand methylation not shown in material
B3: BMRF1 meZRE A (dsDNA)
DNA 1: TTGGTGGATGTGCGAGCCATAAAGC
DNA 2: GCTTTATGGCTCGCACATCCACCAA
modifications: 5mC at position 13 of strand 1; bottom-strand methylation not shown in material
B4: BRLF1 meZRE2 (dsDNA)
DNA 1: CTAAGCTTATGAGCGATTTTATCAC
DNA 2: GTGATAAAATCGCTCATAAGCTTAG
modifications: 5mC at position 14 of strand 1; bottom-strand methylation not shown in material
B5: oriLyt ZRE5 (dsDNA)
DNA 1: TTGTCACCTTTGCACATTTGGTCAG
DNA 2: CTGACCAAATGTGCAAAGGTGACAA
B6: BHLF1 ZRE2 (dsDNA)
DNA 1: TTTAAGGTTTGCTCAGGAGTGGGG
DNA 2: CCCCACTCCTGAGCAAACCTTAAA
B7: BRLF1 ZRE2 (dsDNA)
DNA 1: CTAAGCTTATGAGCGATTTTATCAC
DNA 2: GTGATAAAATCGCTCATAAGCTTAG
B8: BBLF4 meZRE A (dsDNA)
DNA 1: ATGACTCGTGTGCGAGCCGGTTTCG
DNA 2: CGAAACCGGCTCGCACACGAGTCAT
modifications: 5mC at position 13 of strand 1; bottom-strand methylation not shown in material
B9: BRLF1 ZRE3 (dsDNA)
DNA 1: CAGTCAAAATTCGCGATGCTATAAA
DNA 2: TTTATAGCATCGCGAATTTTGACTG
B10: BMRF1 ZRE A (dsDNA)
DNA 1: TTGGTGGATGTGCGAGCCATAAAGC
DNA 2: GCTTTATGGCTCGCACATCCACCAA
B11: BBLF4 ZRE A (dsDNA)
DNA 1: ATGACTCGTGTGCGAGCCGGTTTCG
DNA 2: CGAAACCGGCTCGCACACGAGTCAT
B12: BBLF4 ZRE B (dsDNA)
DNA 1: CTCTCCTATGAGCGTTATGTGGACT
DNA 2: AGTCCACATAACGCTCATAGGAGAG
B13: BBLF4 meZRE B (dsDNA)
DNA 1: CTCTCCTATGAGCGTTATGTGGACT
DNA 2: AGTCCACATAACGCTCATAGGAGAG
modifications: 5mC at position 13 of strand 1; bottom-strand methylation not shown in material

Each binder was assayed against Zta (BZLF1:Strep/FLAG) (Epstein-Barr virus, UniProt P03206 149-245) (assay: EMSA; apparent, Hill fit; […]; pH and temperature not stated). Conditions: protein: recombinant; tags: tandem StrepII/FLAG; chain copies: 2; label: 32P 5' end; blunt.
Chain of Zta (BZLF1:Strep/FLAG) (P03206 149-245): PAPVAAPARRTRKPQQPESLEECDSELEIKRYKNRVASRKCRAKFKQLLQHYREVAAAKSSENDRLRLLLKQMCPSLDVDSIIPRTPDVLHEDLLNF

B1 was tested. Which Kd did it give?
The Kd was 40.8 ± 23 nM.

Which Kd does the source give for B2 here?
Its Kd is 135 ± 45 nM.

With B3 as the binder, how does the Kd read?
The Kd was 20.2 ± 12.5 nM.

How did the Kd turn out when B4 was run?
The Kd was 12.7 ± 8.2 nM.

With B5 as the binder, how does the Kd read?
Its Kd is 37.7 ± 4.3 nM.

Which Kd does the source give for B6 here?
Its Kd is 91.6 ± 38.5 nM.

B7 was tested. Which Kd did it give?
Its Kd is 113 ± 11.9 nM.

Which Kd does the source give for B8 here?
Its Kd is 16.3 ± 2.6 nM.

With B9 as the binder, how does the Kd read?
The Kd was 1190 ± 227 nM.

B10 was tested. Which Kd did it give?
The Kd was 328 ± 166 nM.

How did the Kd turn out when B11 was run?
Its Kd is 219 ± 41 nM.

With B12 as the binder, how does the Kd read?
Its Kd is 484 ± 244 nM.

For B13, which Kd is on record?
Its Kd is 18 ± 4.2 nM.
